Laboratory results from US20250136688A1 (Janssen / Centocor, published 2025).

Legend:
[1] = target: T1, ectonucleotide pyrophosphatase/phosphodiesterase family member 1 (ENPP1) (human, UniProt P22413 1-925); assay: flow cytometry on CHOK1 cells overexpressing ENPP1
T1 construct: whole, on cells
T1 sequence (looked up): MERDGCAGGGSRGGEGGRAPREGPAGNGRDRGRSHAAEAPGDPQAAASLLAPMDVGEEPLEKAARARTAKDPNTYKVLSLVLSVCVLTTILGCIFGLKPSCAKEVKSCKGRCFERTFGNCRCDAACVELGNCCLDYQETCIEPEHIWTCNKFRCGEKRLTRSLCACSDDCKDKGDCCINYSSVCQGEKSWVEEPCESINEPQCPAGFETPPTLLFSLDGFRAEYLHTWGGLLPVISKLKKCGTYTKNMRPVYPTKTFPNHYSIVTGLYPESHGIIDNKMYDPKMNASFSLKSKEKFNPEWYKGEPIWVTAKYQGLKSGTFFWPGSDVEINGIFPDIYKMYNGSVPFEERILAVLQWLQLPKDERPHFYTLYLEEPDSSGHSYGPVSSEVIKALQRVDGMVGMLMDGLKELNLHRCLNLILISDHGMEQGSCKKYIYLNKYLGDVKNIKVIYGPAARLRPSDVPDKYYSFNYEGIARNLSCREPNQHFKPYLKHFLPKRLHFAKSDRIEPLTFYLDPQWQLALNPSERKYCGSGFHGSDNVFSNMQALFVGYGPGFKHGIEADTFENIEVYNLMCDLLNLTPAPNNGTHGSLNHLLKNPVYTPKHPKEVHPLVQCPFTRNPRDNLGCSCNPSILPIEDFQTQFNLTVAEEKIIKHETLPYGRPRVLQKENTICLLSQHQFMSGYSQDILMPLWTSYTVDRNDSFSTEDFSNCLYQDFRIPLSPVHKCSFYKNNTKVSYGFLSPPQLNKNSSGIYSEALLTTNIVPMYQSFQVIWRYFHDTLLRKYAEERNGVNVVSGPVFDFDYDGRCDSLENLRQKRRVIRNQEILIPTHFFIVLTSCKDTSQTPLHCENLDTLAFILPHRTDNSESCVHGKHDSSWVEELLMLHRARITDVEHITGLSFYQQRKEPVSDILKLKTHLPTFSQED

[2] = target: T2, ectonucleotide pyrophosphatase/phosphodiesterase family member 3 (ENPP3) (human, UniProt O14638 1-875); assay: cell-based or functional assay
T2 sequence (looked up): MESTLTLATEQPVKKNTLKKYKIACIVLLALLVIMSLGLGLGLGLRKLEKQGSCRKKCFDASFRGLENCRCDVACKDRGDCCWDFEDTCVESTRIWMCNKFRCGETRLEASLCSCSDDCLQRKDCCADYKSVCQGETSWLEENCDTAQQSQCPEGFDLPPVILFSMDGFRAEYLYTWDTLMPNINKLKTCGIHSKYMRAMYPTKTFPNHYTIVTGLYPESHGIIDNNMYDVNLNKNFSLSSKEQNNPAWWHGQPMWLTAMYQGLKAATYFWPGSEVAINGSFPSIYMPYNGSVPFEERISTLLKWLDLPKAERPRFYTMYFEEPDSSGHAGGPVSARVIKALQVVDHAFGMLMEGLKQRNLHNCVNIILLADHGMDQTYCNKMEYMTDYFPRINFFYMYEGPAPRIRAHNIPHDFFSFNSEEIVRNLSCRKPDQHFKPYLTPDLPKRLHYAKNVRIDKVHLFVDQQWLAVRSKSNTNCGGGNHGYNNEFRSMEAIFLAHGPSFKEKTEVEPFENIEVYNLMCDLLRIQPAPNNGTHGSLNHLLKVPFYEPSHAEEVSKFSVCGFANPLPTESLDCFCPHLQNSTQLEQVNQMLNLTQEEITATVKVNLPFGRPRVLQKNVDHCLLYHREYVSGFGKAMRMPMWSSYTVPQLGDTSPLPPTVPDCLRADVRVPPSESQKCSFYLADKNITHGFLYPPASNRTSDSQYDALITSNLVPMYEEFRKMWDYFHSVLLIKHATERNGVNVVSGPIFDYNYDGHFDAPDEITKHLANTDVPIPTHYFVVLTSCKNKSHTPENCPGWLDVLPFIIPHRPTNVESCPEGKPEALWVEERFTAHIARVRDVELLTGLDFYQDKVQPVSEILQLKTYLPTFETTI

Human CD3 epsilon [3] = target: T3, Human CD3 epsilon (human, UniProt P07766 23-207); assay: flow cytometry on T cells of healthy human donor 110042496
T3 construct: Stood on human T cells (pan-T cells, isolated donor T cells) as part of the TCR/CD3 complex; the other chains of the complex are not written here; also called CD3ε; CD3R
T3 sequence (P07766 23-207 limits assumed): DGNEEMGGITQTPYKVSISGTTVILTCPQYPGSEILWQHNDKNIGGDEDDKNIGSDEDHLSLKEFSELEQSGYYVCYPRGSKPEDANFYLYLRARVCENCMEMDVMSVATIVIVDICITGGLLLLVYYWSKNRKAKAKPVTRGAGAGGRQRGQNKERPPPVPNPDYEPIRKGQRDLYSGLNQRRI

Human CD3 epsilon [4] = target: T3, Human CD3 epsilon; assay: flow cytometry on T cells of healthy human donor 110048457
[5] = target: T2, ectonucleotide …; assay: cell-based or functional assay; remark: listed apart in the source
Human CD3 epsilon [6] = target: T3, Human CD3 epsilon; assay: flow cytometry on T cells of healthy human donor 110044049

B1: NPP3B815 (NPP3B56×CD3B2030-N106A-spFv) (bispecific antibody, human IgG1, kappa, L234A L235A)
chain: EIVLTQSPATLSASPGERVTLSCSASSSVSYMNWYQQKPGCAPRRWIYDSSKLASGVPARFSGSGSGRDYTLTISSLEPEDFAVYYCQQWSRNPPTFGGGTKVEIKGGGSGGSGGCPPCGGSGGQVQLVQSGAEVKKPGSSVKVSCKASGYTFTRSTMHWVKQAPGQGLEWIGYINPSSAYTNYNQKFQGRVTLTADKSTSTAYMELSSLRSEDTAVYYCASPQVHYDYAGFPYWGCGTLVTVSSEPKSSDKTHTCPPCPAPEAAGGPSVFLFPPKPKDTLMISRTPEVTCVVVSVSHEDPEVKFNWYVDGVEVHNAKTKPREEQYNSTYRVVSVLTVLHQDWLNGKEYKCKVSNKALPAPIEKTISKAKGQPREPQVYTLPPSREEMTKNQVSLWCLVKGFYPSDIAVEWESNGQPENNYKTTPPVLDSDGSFFLYSKLTVDKSRWQQGNVFSCSVMHEALHNHYTQKSLSLSPGK
heavy: EVQLVESGGGRVKPGGSLRLSCAASGFTFSDYSMNWVRQAPGKGLEWVSSISSISSYVKYADSVKGRFTMSRDNAKNSLFLQMNSLRDEDMAVYYCARGHYFDYWGQGTLVTVSSASTKGPSVFPLAPSSKSTSGGTAALGCLVKDYFPEPVTVSWNSGALTSGVHTFPAVLQSSGLYSLSSVVTVPSSSLGTQTYICNVNHKPSNTKVDKKVEPKSCDKTHTCPPCPAPEAAGGPSVFLFPPKPKDTLMISRTPEVTCVVVSVSHEDPEVKFNWYVDGVEVHNAKTKPREEQYNSTYRVVSVLTVLHQDWLNGKEYKCKVSNKALPAPIEKTISKAKGQPREPQVYTLPPSREEMTKNQVSLSCAVKGFYPSDIAVEWESNGQPENNYKTTPPVLDSDGSFFLVSKLTVDKSRWQQGNVFSCSVMHEALHNRFTQKSLSLSPGK
light: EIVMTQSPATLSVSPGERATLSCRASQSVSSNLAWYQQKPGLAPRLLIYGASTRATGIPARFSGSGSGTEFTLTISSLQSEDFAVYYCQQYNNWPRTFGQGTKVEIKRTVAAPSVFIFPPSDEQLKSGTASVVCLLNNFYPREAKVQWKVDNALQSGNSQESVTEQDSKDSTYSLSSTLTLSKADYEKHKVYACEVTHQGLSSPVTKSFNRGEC
notes: Heavy Chain 1 = anti-CD3 spFv-Fc (knob); Heavy Chain 2 and Light Chain = anti-ENPP3 Fab arm NPP3B56 (hole); IgG1 with L234A, L235A, D265S; also called ENPP3×CD3
With B1 the binding result [1] was “no binding”, the “T-cell activation (Flow Cytometry) EC50, A704” value [2] was 0.011 nM and the “T-cell activation (Flow Cytometry) EC50, HepG2” value [2] was 0.041 nM. For the same binder, the “T-cell activation (Flow Cytometry) EC50, VMRCRCW” value [2] was 0.018 nM, the “Tumor cell killing (Incucyte) EC50, A704” value [2] was 0.03 nM and the “Tumor cell killing (Incucyte) EC50, HepG2” value [2] was 0.53 nM. The “Tumor cell killing (Incucyte) EC50, TUHR4TKB” value [2] was 0.05 nM, the “Tumor cell killing (Incucyte) EC50, TUHR10TKB” value [2] was 0.02 nM and the “Tumor cell killing (Incucyte) EC50, VMRCRCW” value [2] was 0.13 nM. The EC50 (Human CD3 epsilon [3]) was 147 nM, the EC50 (Human CD3 epsilon [4]) was 132 nM and the “killing EC50 @ 72 hrs, A704, T-cell donor 110040278, E:T 1:1” value [5] was 0.075 nM. The “killing EC50 @ 72 hrs, A704, T-cell donor 110040278, E:T 3:1” value [5] was 0.0484 nM, the “killing EC50 @ 72 hrs, A704, T-cell donor 110042496, E:T 1:1” value [5] was 0.132 nM and the “killing EC50 @ 72 hrs, A704, T-cell donor 110042496, E:T 3:1” value [5] was 0.0696 nM. The “killing EC50 @ 72 hrs, A704, T-cell donor 110042593, E:T 1:1” value [5] was 0.114 nM, the “killing EC50 @ 72 hrs, A704, T-cell donor 110042593, E:T 3:1” value [5] was 0.0336 nM and the “killing EC50 @ 72 hrs, A704, T-cell donor 110044049, E:T 3:1” value [5] was 0.0524 nM. The “killing EC50 @ 72 hrs, A704, T-cell donor 888668965, E:T 3:1” value [5] was 0.0454 nM, the “killing EC50 @ 72 hrs, VMRCRCW, T-cell donor 110040278, E:T 1:1” value [5] was 0.243 nM and the “killing EC50 @ 72 hrs, VMRCRCW, T-cell donor 110040278, E:T 1:3” value [5] was 0.456 nM. The “killing EC50 @ 72 hrs, VMRCRCW, T-cell donor 110040278, E:T 3:1” value [5] was 0.0923 nM, the “killing EC50 @ 72 hrs, VMRCRCW, T-cell donor 110042496, E:T 1:1” value [5] was 0.465 nM and the “killing EC50 @ 72 hrs, VMRCRCW, T-cell donor 110042496, E:T 3:1” value [5] was 0.128 nM. For the same binder, the “killing EC50 @ 72 hrs, VMRCRCW, T-cell donor 110042593, E:T 1:1” value [5] was 0.225 nM, the “killing EC50 @ 72 hrs, VMRCRCW, T-cell donor 110042593, E:T 3:1” value [5] was 0.0795 nM and the “killing EC50 @ 72 hrs, VMRCRCW, T-cell donor 110044049, E:T 1:1” value [5] was 0.151 nM. For the same binder, the “killing EC50 @ 72 hrs, VMRCRCW, T-cell donor 110044049, E:T 1:3” value [5] was 0.226 nM, the “killing EC50 @ 72 hrs, VMRCRCW, T-cell donor 110044049, E:T 3:1” value [5] was 0.115 nM and the “killing EC50 @ 72 hrs, VMRCRCW, T-cell donor 110048457, E:T 1:1” value [5] was 0.177 nM. The “killing EC50 @ 72 hrs, VMRCRCW, T-cell donor 110048457, E:T 1:3” value [5] was 0.276 nM, the “killing EC50 @ 72 hrs, VMRCRCW, T-cell donor 110048457, E:T 3:1” value [5] was 0.372 nM and the “killing EC50 @ 72 hrs, VMRCRCW, T-cell donor 888668965, E:T 1:1” value [5] was 0.273 nM. The “killing EC50 @ 72 hrs, VMRCRCW, T-cell donor 888668965, E:T 1:3” value [5] was 0.469 nM, the “killing EC50 @ 72 hrs, VMRCRCW, T-cell donor 888668965, E:T 3:1” value [5] was 0.156 nM and the “killing EC50 @ 120 hrs, A704, T-cell donor 110040278, E:T 1:1” value [5] was 0.041 nM. For the same binder, the “killing EC50 @ 120 hrs, A704, T-cell donor 110040278, E:T 1:3” value [5] was 0.149 nM, the “killing EC50 @ 120 hrs, A704, T-cell donor 110042496, E:T 1:1” value [5] was 0.073 nM and the “killing EC50 @ 120 hrs, A704, T-cell donor 110042496, E:T 1:3” value [5] was 0.191 nM. For the same binder, the “killing EC50 @ 120 hrs, A704, T-cell donor 110042593, E:T 1:1” value [5] was 0.048 nM, the “killing EC50 @ 120 hrs, A704, T-cell donor 110042593, E:T 1:3” value [5] was 0.106 nM and the “killing EC50 @ 120 hrs, A704, T-cell donor 110044049, E:T 1:1” value [5] was 0.125 nM. The “killing EC50 @ 120 hrs, A704, T-cell donor 888668965, E:T 1:3” value [5] was 0.163 nM, the “killing EC50 @ 120 hrs, VMRCRCW, T-cell donor 110040278, E:T 1:1” value [5] was 0.264 nM and the “killing EC50 @ 120 hrs, VMRCRCW, T-cell donor 110040278, E:T 1:3” value [5] was 0.332 nM. For the same binder, the “killing EC50 @ 120 hrs, VMRCRCW, T-cell donor 110042496, E:T 1:1” value [5] was 0.454 nM, the “killing EC50 @ 120 hrs, VMRCRCW, T-cell donor 110042496, E:T 1:3” value [5] was 0.5 nM and the “killing EC50 @ 120 hrs, VMRCRCW, T-cell donor 110042593, E:T 1:1” value [5] was 0.218 nM. The “killing EC50 @ 120 hrs, VMRCRCW, T-cell donor 110042593, E:T 1:3” value [5] was 0.485 nM, the “killing EC50 @ 120 hrs, VMRCRCW, T-cell donor 110044049, E:T 1:1” value [5] was 0.216 nM and the “killing EC50 @ 120 hrs, VMRCRCW, T-cell donor 110044049, E:T 1:3” value [5] was 0.337 nM. The “killing EC50 @ 120 hrs, VMRCRCW, T-cell donor 110048457, E:T 1:1” value [5] was 0.21 nM, the “killing EC50 @ 120 hrs, VMRCRCW, T-cell donor 110048457, E:T 1:3” value [5] was 0.267 nM and the “killing EC50 @ 120 hrs, VMRCRCW, T-cell donor 888668965, E:T 1:1” value [5] was 0.345 nM. The “killing EC50 @ 120 hrs, VMRCRCW, T-cell donor 888668965, E:T 1:3” value [5] was 0.379 nM and the EC50 (Human CD3 epsilon [6]) was 188 nM.
